Experimental findings from US20170114115A1 are described below.

Assay in all cases: cell-based or functional assay
The target of experiment [1] is recombinant human glucagon receptor (human) (UniProt P47871).
For experiment [2], the target named is T1, human glucose-dependent insulinotropic polypeptide receptor (human) (UniProt P48546).
T1 sequence (looked up): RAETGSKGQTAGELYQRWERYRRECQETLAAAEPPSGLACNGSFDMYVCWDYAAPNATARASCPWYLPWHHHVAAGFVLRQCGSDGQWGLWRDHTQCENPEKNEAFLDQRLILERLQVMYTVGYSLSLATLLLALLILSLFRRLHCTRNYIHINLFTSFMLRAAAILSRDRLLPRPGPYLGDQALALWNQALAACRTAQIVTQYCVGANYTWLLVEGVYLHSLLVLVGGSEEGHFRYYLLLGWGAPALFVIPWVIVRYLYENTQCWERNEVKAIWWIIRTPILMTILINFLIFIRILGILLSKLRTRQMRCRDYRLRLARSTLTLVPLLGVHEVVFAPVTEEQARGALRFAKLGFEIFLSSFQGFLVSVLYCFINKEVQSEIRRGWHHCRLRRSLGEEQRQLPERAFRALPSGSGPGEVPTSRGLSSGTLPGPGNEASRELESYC

The target in experiment [3] is human Glucagon-Like Peptide-1 receptor (human) (UniProt P43220).

Some results are limits rather than exact numbers.

dulaglutide (Fc fusion), sequence (chain): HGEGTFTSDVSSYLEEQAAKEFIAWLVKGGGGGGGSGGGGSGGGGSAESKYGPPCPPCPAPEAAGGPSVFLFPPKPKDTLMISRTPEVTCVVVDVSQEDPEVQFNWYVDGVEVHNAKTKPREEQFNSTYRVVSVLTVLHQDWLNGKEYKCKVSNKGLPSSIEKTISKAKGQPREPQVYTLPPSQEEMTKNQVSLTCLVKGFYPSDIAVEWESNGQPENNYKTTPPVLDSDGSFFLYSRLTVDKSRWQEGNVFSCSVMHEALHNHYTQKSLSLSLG
recombinant human glucagon receptor (human), sequence (P47871 26-477): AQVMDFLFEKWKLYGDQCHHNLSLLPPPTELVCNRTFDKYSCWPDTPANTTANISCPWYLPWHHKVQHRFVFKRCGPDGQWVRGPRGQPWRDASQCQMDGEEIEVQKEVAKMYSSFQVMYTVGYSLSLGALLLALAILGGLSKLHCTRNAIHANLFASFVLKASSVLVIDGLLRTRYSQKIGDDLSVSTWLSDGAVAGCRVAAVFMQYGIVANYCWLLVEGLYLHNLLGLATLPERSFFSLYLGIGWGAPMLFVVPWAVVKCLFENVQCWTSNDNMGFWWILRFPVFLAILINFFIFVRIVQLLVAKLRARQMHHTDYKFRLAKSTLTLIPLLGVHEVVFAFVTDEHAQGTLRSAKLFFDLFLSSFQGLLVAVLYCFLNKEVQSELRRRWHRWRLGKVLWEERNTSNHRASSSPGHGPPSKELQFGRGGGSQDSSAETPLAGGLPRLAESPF
human Glucagon-Like Peptide-1 receptor (human), sequence (P43220 24-463): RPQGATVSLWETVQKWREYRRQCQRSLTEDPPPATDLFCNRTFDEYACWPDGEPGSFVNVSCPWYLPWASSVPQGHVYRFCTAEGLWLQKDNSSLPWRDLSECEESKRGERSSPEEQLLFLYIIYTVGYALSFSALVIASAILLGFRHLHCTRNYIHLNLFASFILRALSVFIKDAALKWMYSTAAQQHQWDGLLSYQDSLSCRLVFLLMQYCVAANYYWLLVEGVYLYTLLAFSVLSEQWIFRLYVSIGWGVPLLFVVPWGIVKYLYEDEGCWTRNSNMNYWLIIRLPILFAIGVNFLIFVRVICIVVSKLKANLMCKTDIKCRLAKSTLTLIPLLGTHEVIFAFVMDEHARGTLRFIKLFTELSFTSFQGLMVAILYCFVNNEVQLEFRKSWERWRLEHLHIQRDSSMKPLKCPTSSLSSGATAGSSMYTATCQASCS

As for dulaglutide (Fc fusion), in experiment [1], the EC50, Gcg Receptor Assay (cAMP); sample C6.5-4 C.-4 wk is 51.9 nM; the EC50, Gcg Receptor Assay (cAMP); sample C6.5-40 C.-4 wk was more than 100 nM; the EC50, Gcg Receptor Assay (cAMP); sample C6.5MT-4 C.-4 wk was 54 nM; the EC50, Gcg Receptor Assay (cAMP); sample C6.5MT-40 C.-4 wk is more than 100 nM. Besides, in experiment [2], the EC50, GIP Receptor Assay (cAMP); sample C6.5-4 C.-4 wk was more than 100 nM; the EC50, GIP Receptor Assay (cAMP); sample C6.5-40 C.-4 wk was more than 100 nM; the EC50, GIP Receptor Assay (cAMP); sample C6.5MT-4 C.-4 wk is more than 100 nM; the EC50, GIP Receptor Assay (cAMP); sample C6.5MT-40 C.-4 wk was more than 100 nM. In experiment [3], this substance showed an EC50, GLP-1 Receptor Assay (cAMP); sample C6.5-4 C.-4 wk of 0.37 nM; an EC50, GLP-1 Receptor Assay (cAMP); sample C6.5-40 C.-4 wk of 0.31 nM; an EC50, GLP-1 Receptor Assay (cAMP); sample C6.5MT-4 C.-4 wk of 0.4 nM; an EC50, GLP-1 Receptor Assay (cAMP); sample C6.5MT-40 C.-4 wk of 0.29 nM.
